Data as given in the RNAGym collection of RNA variant scans (doi:10.7554/elife.90254).

B1: LINE1-mini (parent)
chain: GGCAGAGCUCAACACAGCGUGGCAAAGUGGCUGUGGCUAGACUGCC

Variants of: B1
Test: self-cleavage, relative activity (ratio to wild type); higher = more cleavage; in vitro, sequencing; the parent is a self-cleaving ribozyme

Variant | self-cleavage
GGCAGAGCUCCACACAGCGUGGCAAAGUGGCUGUGACUAGACUGCC [A11C G36A] | 0.04
GGCAGAGCUCCACACAGCGUGGCAAAGUGGCUGUGCCUAGACUGCC [A11C G36C] | 0.03
GGCAGAGCUCCACACAGCGUGGCAAAGUGGCUGUGUCUAGACUGCC [A11C G36U] | 0.01
GGCAGAGCUCCACACAGCGUGGCAAAGUGGCUGUCGCUAGACUGCC [A11C G35C] | 0.03
GGCAGAGCUCCACACAGCGUGGCAAAGUGGCUGUUGCUAGACUGCC [A11C G35U] | 0.02
GGCAGAGCUCCACACAGCGUGGCAAAGUGGCUGUAGCUAGACUGCC [A11C G35A] | 0.03
GGCAGAGCUCCACACAGCGGGGCAAAGUGGCUGUGGCUAGACUGCC [A11C U20G] | 0.04
GGCAGAGCUCCACACAGCGCGGCAAAGUGGCUGUGGCUAGACUGCC [A11C U20C] | 0.02
GGCAGAGCUCCACACAGCGAGGCAAAGUGGCUGUGGCUAGACUGCC [A11C U20A] | 0.02
GGCAGAGCUCCACACAGCGUGGCAAAGUGGCUGUGGCUACACUGCC [A11C G40C] | 0.04
GGCAGAGCUCCACACAGCGUGGCAAAGUGGCUGUGGCUAUACUGCC [A11C G40U] | 0.02
GGCAGAGCUCCACACAGCGUGGCAAAGUGGCUGUGGCUAAACUGCC [A11C G40A] | 0.02
GGCAGAGCUCGGCACAGCGUGGCAAAGUGGCUGUGGCUAGACUGCC [A11G A12G] | 0.02
GGCAGAGCUCGUCACAGCGUGGCAAAGUGGCUGUGGCUAGACUGCC [A11G A12U] | 0.04
GGCAGAGCUCGCCACAGCGUGGCAAAGUGGCUGUGGCUAGACUGCC [A11G A12C] | 0.02
GGCAGAGCUCGACACAGCAUGGCAAAGUGGCUGUGGCUAGACUGCC [A11G G19A] | 0.04
GGCAGAGCUCGACACAGCCUGGCAAAGUGGCUGUGGCUAGACUGCC [A11G G19C] | 0.03
GGCAGAGCUCGACACAGCUUGGCAAAGUGGCUGUGGCUAGACUGCC [A11G G19U] | 0.02
GGCAGAGCUCGACACAGCGUGGUAAAGUGGCUGUGGCUAGACUGCC [A11G C23U] | 0.02

Variant | self-cleavage
GGCAGAGCUCGACACAGCGUGGAAAAGUGGCUGUGGCUAGACUGCC [A11G C23A] | 0.04
GGCAGAGCUCGACACAGCGUGGGAAAGUGGCUGUGGCUAGACUGCC [A11G C23G] | 0.03
GGCAGAGCUCCACACAGCGUGGCAAAGUGGCUGGGGCUAGACUGCC [A11C U34G] | 0.04
GGCAGAGCUCCACACAGCGUGGCAAAGUGGCUGCGGCUAGACUGCC [A11C U34C] | 0.04
GGCAGAGCUCCACACAGCGUGGCAAAGUGGCUGAGGCUAGACUGCC [A11C U34A] | 0.02
GGCAGAGCUCGAAACAGCGUGGCAAAGUGGCUGUGGCUAGACUGCC [A11G C13A] | 0.04
GGCAGAGCUCGAUACAGCGUGGCAAAGUGGCUGUGGCUAGACUGCC [A11G C13U] | 0.03
GGCAGAGCUCGAGACAGCGUGGCAAAGUGGCUGUGGCUAGACUGCC [A11G C13G] | 0.02
GGCAGAGCUCCACACAGCGUGGCAAAGUGGCUGUGGCUAGACCGCC [A11C U43C] | 0.02
GGCAGAGCUCCACACAGCGUGGCAAAGUGGCUGUGGCUAGACGGCC [A11C U43G] | 0.03
GGCAGAGCUCCACACAGCGUGGCAAAGUGGCUGUGGCUAGACAGCC [A11C U43A] | 0.01
GGCAGAGCUCGACAGAGCGUGGCAAAGUGGCUGUGGCUAGACUGCC [A11G C15G] | 0.03
GGCAGAGCUCGACAUAGCGUGGCAAAGUGGCUGUGGCUAGACUGCC [A11G C15U] | 0.03
GGCAGAGCUCGACAAAGCGUGGCAAAGUGGCUGUGGCUAGACUGCC [A11G C15A] | 0.02
GGCAGAGCUCGACACAGUGUGGCAAAGUGGCUGUGGCUAGACUGCC [A11G C18U] | 0.04
GGCAGAGCUCGACACAGAGUGGCAAAGUGGCUGUGGCUAGACUGCC [A11G C18A] | 0.04
GGCAGAGCUCGACACAGGGUGGCAAAGUGGCUGUGGCUAGACUGCC [A11G C18G] | 0.02
GGCAGAGCUCCACACAGCGUGGCAAAGUGGCUGUGGCUAGACUACC [A11C G44A] | 0.06
GGCAGAGCUCCACACAGCGUGGCAAAGUGGCUGUGGCUAGACUUCC [A11C G44U] | 0.03

Variant | self-cleavage
GGCAGAGCUCCACACAGCGUGGCAAACUGGCUGUGGCUAGACUGCC [A11C G27C] | 0.04
GGCAGAGCUCCACACAGCGUGGCAAAUUGGCUGUGGCUAGACUGCC [A11C G27U] | 0.05
GGCAGAGCUCGACACAGCGUGGCAAAGUGGUUGUGGCUAGACUGCC [A11G C31U] | 0.02
GGCAGAGCUCGACACAGCGUGGCAAAGUGGGUGUGGCUAGACUGCC [A11G C31G] | 0.03
GGCAGAGCUCGACACAGCGUGGCAAAGUGGAUGUGGCUAGACUGCC [A11G C31A] | 0.02
GGCAGAGCUCGACACCGCGUGGCAAAGUGGCUGUGGCUAGACUGCC [A11G A16C] | 0.02
GGCAGAGCUCGACACUGCGUGGCAAAGUGGCUGUGGCUAGACUGCC [A11G A16U] | 0.03
GGCAGAGCUCGACACGGCGUGGCAAAGUGGCUGUGGCUAGACUGCC [A11G A16G] | 0.02
GGCAGAGCUCGACACAGCGUGGCAAAGUGGCUGUGGCUAGUCUGCC [A11G A41U] | 0.02
GGCAGAGCUCGACACAGCGUGGCAAAGUGGCUGUGGCUAGCCUGCC [A11G A41C] | 0.03
GGCAGAGCUCGACACAGCGUGGCAAAGUGGCUGUGGCUAGGCUGCC [A11G A41G] | 0.02
GGCAGAGCUCGACACAGCGUGGCAAAGUGGCUGUGGCUCGACUGCC [A11G A39C] | 0.04
GGCAGAGCUCGACACAGCGUGGCAAAGUGGCUGUGGCUUGACUGCC [A11G A39U] | 0.05
GGCAGAGCUCGACACAGCGUGGCAAAGUGGCUGUGGCUGGACUGCC [A11G A39G] | 0.03
GGCAGAGCUCCACACAGCGUGGCAAAGUGACUGUGGCUAGACUGCC [A11C G30A] | 0.08
GGCAGAGCUCCACACAGCGUGGCAAAGUGCCUGUGGCUAGACUGCC [A11C G30C] | 0.04
GGCAGAGCUCCACACAGCGUGGCAAAGUGUCUGUGGCUAGACUGCC [A11C G30U] | 0.05
GGCAGAGCUCGACACAGCGUUGCAAAGUGGCUGUGGCUAGACUGCC [A11G G21U] | 0.03
